Consider 1 molecule from PMC5493759, “Neurovascular EGFL7 regulates adult neurogenesis in the subventricular zone and thereby affects olfactory perception” (Nature Communications, 2017).

Test in all cases: co-IP; Flag-tagged EGFL7 co-expressed with V5-tagged Notch ECDs or Notch1-ECD deletion mutants in HEK293; lysate immunoprecipitated with Immunosorb A overnight at 4 °C; quantitative western blot (Odyssey); n=3
A general note: A western blot detects proteins with antibodies after separation by electrophoresis.

For experiment [1], the target named is V5-tagged Notch1-ECD deletion mutant Notch1-Δ11+12 (UniProt Q01705).
Experiment [2] addresses V5-tagged Notch1-ECD deletion mutant Notch1-Δ5–10 (UniProt Q01705).
The target in experiment [3] is V5-tagged Notch1-ECD deletion mutant Notch1-Δ8 (UniProt Q01705).
Experiment [4] concerns the target T1, V5-tagged Notch2 extracellular domain (UniProt O35516 26-1679).
T1 construct: Notch2, extracellular domain; source: HEK293, transiently transfected, in lysate
The note with it: partners not purified.

The target of experiment [5] is T2, V5-tagged Notch3 extracellular domain (UniProt Q61982 40-1643).
T2 construct: Notch3, extracellular domain; source: HEK293, transiently transfected, in lysate
The note with it: partners not purified.

Experiment [6] concerns the target T3, V5-tagged Notch4 extracellular domain (UniProt P31695 21-1443).
T3 construct: Notch4, extracellular domain; source: HEK293, transiently transfected, in lysate
T3 sequence (looked up): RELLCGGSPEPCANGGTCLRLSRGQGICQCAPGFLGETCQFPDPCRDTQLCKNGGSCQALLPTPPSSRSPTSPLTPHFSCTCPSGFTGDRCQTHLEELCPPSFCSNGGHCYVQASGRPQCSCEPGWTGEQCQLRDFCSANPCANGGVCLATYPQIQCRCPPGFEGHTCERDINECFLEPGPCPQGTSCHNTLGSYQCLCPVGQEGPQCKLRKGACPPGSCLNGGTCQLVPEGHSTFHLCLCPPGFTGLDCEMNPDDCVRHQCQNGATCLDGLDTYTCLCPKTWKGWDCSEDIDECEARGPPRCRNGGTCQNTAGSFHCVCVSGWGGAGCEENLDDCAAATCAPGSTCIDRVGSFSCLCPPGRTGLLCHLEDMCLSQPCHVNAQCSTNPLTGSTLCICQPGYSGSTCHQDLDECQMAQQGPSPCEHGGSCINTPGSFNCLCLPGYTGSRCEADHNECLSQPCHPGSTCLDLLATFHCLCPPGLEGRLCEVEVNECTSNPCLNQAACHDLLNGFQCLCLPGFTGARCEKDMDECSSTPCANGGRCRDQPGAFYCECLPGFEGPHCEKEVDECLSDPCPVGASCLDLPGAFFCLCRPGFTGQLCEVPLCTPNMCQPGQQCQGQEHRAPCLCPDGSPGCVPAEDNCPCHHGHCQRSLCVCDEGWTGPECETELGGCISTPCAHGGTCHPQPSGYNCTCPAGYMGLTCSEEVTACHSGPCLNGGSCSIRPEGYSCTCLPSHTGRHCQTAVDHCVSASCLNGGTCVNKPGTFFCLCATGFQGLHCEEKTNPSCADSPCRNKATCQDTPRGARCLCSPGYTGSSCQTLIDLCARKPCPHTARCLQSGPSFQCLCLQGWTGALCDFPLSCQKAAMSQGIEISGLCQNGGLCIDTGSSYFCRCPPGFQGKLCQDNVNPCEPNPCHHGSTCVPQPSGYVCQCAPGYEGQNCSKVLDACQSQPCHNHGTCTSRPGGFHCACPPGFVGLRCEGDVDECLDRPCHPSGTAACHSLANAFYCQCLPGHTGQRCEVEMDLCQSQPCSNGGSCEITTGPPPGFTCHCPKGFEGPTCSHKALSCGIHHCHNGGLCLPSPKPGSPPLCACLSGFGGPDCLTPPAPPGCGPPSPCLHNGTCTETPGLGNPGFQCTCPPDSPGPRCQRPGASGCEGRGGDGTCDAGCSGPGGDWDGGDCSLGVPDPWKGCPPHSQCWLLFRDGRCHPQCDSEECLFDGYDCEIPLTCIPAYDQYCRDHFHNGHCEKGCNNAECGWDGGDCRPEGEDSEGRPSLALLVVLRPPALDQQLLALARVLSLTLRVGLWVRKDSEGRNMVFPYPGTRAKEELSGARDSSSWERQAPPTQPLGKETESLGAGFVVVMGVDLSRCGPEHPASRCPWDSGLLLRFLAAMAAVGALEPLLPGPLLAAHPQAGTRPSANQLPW
To be noted: partners not purified.

T2 sequence (Q61982 40-1643): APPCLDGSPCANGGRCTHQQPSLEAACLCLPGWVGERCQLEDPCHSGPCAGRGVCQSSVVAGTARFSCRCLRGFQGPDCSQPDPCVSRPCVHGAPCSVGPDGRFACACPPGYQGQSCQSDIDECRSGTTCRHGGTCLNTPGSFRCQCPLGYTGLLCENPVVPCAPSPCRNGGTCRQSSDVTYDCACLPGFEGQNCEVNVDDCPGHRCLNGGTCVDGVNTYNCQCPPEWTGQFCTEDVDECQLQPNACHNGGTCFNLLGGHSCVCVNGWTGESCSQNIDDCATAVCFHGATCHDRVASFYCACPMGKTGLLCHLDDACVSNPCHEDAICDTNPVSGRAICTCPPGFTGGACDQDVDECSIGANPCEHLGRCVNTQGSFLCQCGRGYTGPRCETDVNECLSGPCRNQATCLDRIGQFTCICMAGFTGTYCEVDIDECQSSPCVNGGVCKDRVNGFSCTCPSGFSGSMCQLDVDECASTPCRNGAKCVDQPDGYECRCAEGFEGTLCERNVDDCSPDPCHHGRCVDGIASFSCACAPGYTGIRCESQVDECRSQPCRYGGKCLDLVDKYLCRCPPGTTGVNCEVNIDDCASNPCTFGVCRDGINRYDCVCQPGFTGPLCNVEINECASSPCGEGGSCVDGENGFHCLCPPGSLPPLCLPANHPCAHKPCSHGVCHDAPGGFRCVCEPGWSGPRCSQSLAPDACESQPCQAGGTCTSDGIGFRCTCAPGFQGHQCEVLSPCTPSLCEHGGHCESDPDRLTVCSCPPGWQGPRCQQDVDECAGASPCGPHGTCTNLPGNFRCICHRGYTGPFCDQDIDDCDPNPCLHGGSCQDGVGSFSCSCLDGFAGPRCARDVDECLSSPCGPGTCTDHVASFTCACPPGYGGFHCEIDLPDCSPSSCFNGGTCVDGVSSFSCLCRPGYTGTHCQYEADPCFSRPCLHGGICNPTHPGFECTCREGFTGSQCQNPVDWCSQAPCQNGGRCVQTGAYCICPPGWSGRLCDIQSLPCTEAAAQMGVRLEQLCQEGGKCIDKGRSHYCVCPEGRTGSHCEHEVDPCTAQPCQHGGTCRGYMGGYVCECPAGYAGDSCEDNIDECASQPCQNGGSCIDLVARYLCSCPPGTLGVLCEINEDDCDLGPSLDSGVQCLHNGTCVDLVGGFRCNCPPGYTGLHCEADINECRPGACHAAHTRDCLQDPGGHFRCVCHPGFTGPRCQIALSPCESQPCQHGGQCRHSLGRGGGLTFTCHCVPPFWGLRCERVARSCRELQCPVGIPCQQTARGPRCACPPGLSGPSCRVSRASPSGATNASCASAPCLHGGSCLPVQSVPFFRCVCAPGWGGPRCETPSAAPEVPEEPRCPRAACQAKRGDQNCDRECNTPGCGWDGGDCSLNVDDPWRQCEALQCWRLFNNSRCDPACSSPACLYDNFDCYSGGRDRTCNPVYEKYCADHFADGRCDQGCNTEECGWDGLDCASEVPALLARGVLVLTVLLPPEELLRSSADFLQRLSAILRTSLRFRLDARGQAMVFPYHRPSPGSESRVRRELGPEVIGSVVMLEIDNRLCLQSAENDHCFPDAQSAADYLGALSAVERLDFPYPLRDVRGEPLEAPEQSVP
T1 sequence (O35516 26-1679): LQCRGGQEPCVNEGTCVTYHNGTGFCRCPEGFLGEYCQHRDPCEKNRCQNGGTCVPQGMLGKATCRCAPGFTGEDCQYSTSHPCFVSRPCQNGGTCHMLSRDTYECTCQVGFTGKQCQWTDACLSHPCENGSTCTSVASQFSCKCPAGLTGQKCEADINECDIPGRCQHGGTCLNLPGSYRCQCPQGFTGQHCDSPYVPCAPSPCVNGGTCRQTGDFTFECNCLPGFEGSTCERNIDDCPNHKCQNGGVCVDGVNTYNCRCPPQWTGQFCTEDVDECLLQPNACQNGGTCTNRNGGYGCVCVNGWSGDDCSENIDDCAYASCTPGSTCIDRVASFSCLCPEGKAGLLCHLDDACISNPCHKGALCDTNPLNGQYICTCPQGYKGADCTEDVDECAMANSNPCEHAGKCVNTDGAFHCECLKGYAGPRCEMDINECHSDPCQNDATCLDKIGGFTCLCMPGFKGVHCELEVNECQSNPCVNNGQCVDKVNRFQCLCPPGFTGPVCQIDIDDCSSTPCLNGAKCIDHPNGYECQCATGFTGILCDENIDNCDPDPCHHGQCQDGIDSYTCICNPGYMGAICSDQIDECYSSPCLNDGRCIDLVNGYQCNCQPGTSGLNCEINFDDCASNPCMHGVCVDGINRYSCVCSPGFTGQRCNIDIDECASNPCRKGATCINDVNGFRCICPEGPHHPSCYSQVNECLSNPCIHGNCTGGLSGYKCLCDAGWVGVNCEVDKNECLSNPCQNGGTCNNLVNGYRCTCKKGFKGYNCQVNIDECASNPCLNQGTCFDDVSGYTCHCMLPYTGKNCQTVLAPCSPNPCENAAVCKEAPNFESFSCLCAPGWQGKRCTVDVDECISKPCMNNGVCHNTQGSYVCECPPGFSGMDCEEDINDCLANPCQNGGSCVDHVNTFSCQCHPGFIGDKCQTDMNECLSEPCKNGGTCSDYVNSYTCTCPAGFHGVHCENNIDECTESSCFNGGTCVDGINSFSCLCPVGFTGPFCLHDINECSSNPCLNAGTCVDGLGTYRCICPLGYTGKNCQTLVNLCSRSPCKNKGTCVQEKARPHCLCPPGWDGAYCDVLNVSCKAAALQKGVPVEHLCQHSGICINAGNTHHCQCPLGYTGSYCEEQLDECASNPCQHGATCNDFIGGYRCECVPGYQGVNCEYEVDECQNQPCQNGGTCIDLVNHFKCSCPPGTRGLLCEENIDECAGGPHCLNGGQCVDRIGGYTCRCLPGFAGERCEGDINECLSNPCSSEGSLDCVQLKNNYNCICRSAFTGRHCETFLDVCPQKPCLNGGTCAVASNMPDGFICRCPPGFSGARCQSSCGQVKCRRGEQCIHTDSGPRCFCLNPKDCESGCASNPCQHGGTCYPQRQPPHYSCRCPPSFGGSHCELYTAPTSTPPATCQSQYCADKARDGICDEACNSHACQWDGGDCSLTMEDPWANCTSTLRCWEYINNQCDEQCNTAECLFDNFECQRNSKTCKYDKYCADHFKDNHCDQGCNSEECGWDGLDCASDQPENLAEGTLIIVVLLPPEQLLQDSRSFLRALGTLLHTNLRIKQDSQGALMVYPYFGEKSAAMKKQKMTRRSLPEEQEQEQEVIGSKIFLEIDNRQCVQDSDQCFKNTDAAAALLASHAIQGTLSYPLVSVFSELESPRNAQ
Chain of V5-tagged Notch1-ECD deletion mutant Notch1-Δ5–10 (Q01705 19-1725, stated change not applied): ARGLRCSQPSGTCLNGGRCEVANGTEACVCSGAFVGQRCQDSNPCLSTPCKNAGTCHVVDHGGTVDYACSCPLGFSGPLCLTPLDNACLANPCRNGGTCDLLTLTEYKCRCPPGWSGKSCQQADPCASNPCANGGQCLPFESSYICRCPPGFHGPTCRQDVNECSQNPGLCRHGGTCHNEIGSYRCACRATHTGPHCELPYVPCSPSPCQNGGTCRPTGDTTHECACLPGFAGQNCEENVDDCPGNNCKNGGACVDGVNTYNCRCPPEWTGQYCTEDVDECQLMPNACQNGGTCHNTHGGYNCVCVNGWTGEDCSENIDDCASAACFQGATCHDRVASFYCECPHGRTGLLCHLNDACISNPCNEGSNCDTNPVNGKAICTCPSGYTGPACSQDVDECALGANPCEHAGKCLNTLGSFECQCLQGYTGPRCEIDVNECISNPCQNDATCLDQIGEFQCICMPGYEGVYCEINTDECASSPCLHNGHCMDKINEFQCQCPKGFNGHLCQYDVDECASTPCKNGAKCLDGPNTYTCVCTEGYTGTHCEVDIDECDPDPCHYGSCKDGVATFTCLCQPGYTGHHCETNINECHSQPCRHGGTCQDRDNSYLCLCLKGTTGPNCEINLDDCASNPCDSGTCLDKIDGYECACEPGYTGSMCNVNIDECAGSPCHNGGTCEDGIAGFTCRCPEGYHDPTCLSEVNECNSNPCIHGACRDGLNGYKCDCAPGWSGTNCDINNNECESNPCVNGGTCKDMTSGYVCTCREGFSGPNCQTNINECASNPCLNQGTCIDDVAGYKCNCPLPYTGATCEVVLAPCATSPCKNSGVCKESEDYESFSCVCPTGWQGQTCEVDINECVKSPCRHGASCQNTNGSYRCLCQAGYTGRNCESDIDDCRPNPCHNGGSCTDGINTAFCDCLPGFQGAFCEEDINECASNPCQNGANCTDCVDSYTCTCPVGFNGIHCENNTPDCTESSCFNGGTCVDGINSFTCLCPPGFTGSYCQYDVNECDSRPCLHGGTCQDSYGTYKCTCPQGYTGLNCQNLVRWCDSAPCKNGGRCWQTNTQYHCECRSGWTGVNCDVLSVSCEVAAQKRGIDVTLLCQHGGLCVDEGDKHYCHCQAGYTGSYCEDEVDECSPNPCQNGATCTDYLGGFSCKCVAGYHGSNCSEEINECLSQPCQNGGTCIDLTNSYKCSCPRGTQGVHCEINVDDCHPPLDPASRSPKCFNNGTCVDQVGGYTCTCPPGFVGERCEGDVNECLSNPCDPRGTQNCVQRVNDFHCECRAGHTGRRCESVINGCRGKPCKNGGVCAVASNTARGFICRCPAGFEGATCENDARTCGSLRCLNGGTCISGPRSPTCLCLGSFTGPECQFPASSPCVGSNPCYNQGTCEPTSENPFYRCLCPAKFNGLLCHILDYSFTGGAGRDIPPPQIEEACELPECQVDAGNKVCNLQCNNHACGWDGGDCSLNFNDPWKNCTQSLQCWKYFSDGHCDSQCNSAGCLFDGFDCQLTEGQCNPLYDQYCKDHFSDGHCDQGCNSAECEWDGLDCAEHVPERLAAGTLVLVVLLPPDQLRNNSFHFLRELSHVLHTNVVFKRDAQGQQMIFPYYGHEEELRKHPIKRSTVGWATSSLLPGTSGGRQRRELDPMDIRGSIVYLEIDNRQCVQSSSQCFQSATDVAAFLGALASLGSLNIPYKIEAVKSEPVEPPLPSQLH
Chain of V5-tagged Notch1-ECD deletion mutant Notch1-Δ8 (Q01705 19-1725, stated change not applied): as above
Chain of V5-tagged Notch1-ECD deletion mutant Notch1-Δ11+12 (Q01705 19-1725, stated change not applied): as above

B1: Flag-tagged EGFL7 (epidermal growth factor-like protein 7) (natural protein, UniProt Q9QXT5 22-275, looked up)
chain: EHVYRPSRRVCTVGISGGSISETFVQRVYQPYLTTCDGHRACSTYRTIYRTAYRRSPGVTPARPRYACCPGWKRTSGLPGACGAAICQPPCGNGGSCIRPGHCRCPVGWQGDTCQTDVDECSTGEASCPQRCVNTVGSYWCQGWEGQSPSADGTRCLSKEGPSPVAPNPTAGVDSMAREEVYRLQARVDVLEQKLQLVLAPLHSLASRSTEHGLQDPGSLLAHSFQQLDRIDSLSEQVSFLEEHLGSCSCKKDL
notes: epidermal growth factor-like protein 7 (EGFL7); the same molecule is used here; source: HEK293, transiently transfected, in lysate
For B1, the results for the change in binding relative to Notch1-ECD in experiment [1], in experiment [2] and in experiment [3] were -26%, -18% and -28%, respectively. For the same molecule, the “binding relative to Notch1-ECD” value in experiment [4] is approximately 76%; in experiment [5], approximately 41%; in experiment [6] it was approximately 35%.
